Data from US7851180B2, “Microorganism producing L-methionine precursor and the method of producing L-methionine precursor using the microorganism” (CJ Cheiljedang Corporation, priority 2008, dated 2010).

How the values were obtained:
W3-BTJA strain = assay: O-succinylhomoserine production of feed back resistant metA in W3-BTJA strain, Erlenmeyer flask culture; type: cell-based, E. coli; details: for O-succinylhomoserine production (%): metA plasmid in W3-BTJA strain, flask culture 64 hours, HPLC, wild type = 100%; for O-succinylhomoserine production compared with wild type: metA vector in W3-BTJA strain, flask culture
Method: The vector was electroporated into W3-BTJA strain and production capacity of the strain was checked using Erlenmeyer flask culture as described in Example 2-1, O-succinylhomoserine production of modified strain is measured, based on 100% of O-succinylhomoserine production of wild type strain.
To measure the methionine precursor production of each strain constructed in Example 1, Erlenmeyer flask culture was performed. Each strain was cultured on LB plate media at 31° C. for overnight. A single colony was inoculated in 3 ml of LB medium, followed by culture at 31° C. for 5 hours. The culture solution was 200 fold diluted in 250 ml Erlenmeyer flask containing 25 ml of methionine precursor producing medium, followed by culture at 31° C., 200 rpm for 64 hours. HPLC was performed to compare with methionine precursor production capacity (Table 2 and Table 3).

[1] = system: homoserine O-succinyltransferase (metA); assay: Feed back resistance of mutant metA in the presence of 100 mM methionine; type: biochemical, Escherichia coli; details: w/ 100 mM Met; control without Met = 100
Method: To increase production of O-succinylhomoserine which is L-methionine precursor, overexpression of feed-back resistant metA gene encoding homoserine O-succinyltransferase was performed. PCT/US2007/009146 discloses the method for preparing feed-back resistant metA gene and activity of that.
The sequence of the feed-back resistant metA 10 gene is represented in SEQ. ID. NO: 13 and the amino acid sequence encoding by the gene is represented in SEQ. ID. NO: 14. The sequence of metA 11 gene is represented in SEQ. ID. NO: 15 and the amino acid sequence encoding by the gene is represented in SEQ. ID. NO: 16. The sequence of metA 32 gene is represented in SEQ. ID. NO: 17 and the amino acid sequence encoding by the gene is represented in SEQ. ID. NO: 18. The sequence of metA 37 gene is represented in SEQ. ID. NO: 19 and the amino acid sequence encoding by the gene is represented in SEQ. ID. NO: 20. The sequence of metA 41 gene is represented in SEQ. ID. NO: 21 and the amino acid sequence encoding by the gene is represented in SEQ. ID. NO: 22 (PCT/US2007/009146).

Molecule	O-succinylhomoserine production (%) (W3-BTJA strain)	O-succinylhomoserine production compared with wild type (W3-BTJA strain)	% of specific activity retention [1]
#11: feed-back resistant metA 11 gene product, amino acid sequence SEQ. ID. NO: 16 (protein, listed as Escherichia coli) MPIRVPDELPAVNFLREENVFVMSTSRASGQEIRPLKVLILNLMPKKIETENQFLRLLSNSPLQVDIQLLRIDSRESRNTPAEHLNNFYCNFEDIQDQNFDGLIVTGAPLGLVEFNDVAYWPQIKQVLEWSKDHVTSTLFVCWAVQAALNILYGIPKQTRTEKLSGVYEHHILHPHALLTRGFDDSFLAPHSRYADFPAALIRDYTDLEILAETEEGDAYLFASKDKRIAFVTGHPEYDAQTLAQEFFRDVEAGLDPDVPYNYFPHNDPQNTPRESWRSHGNLLFTNWLNYYVYQIAPYDLRHMYPTLD	425%	the most effective production	94%
#10: feed-back resistant metA 10 gene product, amino acid sequence SEQ. ID. NO: 14 (protein, listed as Escherichia coli) MPIRVPDELPAVNFLREENVFVMTTSRASGQEIRPLKVLILNLMPKKIETENQFLRLLSNSPLQVDIQLLRIDSRESRNTPAEHLNNFYCNFEDIQDQNFDGLIVTGAPLGLVEFNDVAYWPQIKQVLEWSKDHVTSTLFVCWAVQAALNILYGIPKQTRTEQLSGVYEHHILHPHALLTRGFDDSFLAPHSRYADFPAALIRDYTDLEILAETEEGDAYLLASKDKRIAFVTGHPEYDAQTLAQEFFRDVEAGLDPDVPYNYFPHNDPQNTPRASWRSHGNLLFTNWLNYYVYRITPYDLRHMNPTLD	392%	the most effective production	97%
#32: feed-back resistant metA 32 gene product, amino acid sequence SEQ. ID. NO: 18 (protein, listed as Escherichia coli) MPIRVPDELPAVNFLREENVFVMTTSRASGQEIRPLKVLILNLMPKKIETENQFLRLLSNSPLQVDIQLLRIDSRESRNTPAEHLNNFYCNFEDIQDQNFDGLIVTGAPLGLVEFNDVAYWPQIKQVLEWSKDHVTSTLFVCWAVQAALNILYGIPKQTRTEKLSGVYEHHILHPHALLTRGFDDSFLAPHSRYADFPAALIRDYTDLEILAETEEGDAYLFASKDKRIAFVTGHPEYDAQTLAQEFFRDVEAGLDPDVPYNYFPHNDPQNTPRASWRSHGNLLFTNWLHYYVYQITPYDLRHMNPTLD	396%	the most effective production	79%
w.t.: wild type metA, homoserine O-succinyltransferase of E. coli (protein, UniProt P07623 2-309, looked up) Homoserine …: PIRVPDELPAVNFLREENVFVMTTSRASGQEIRPLKVLILNLMPKKIETENQFLRLLSNSPLQVDIQLLRIDSRESRNTPAEHLNNFYCNFEDIQDQNFDGLIVTGAPLGLVEFNDVAYWPQIKQVLEWSKDHVTSTLFVCWAVQAALNILYGIPKQTRTEKLSGVYEHHILHPHALLTRGFDDSFLAPHSRYADFPAALIRDYTDLEILAETEEGDAYLFASKDKRIAFVTGHPEYDAQTLAQEFFRDVEAGLDPDVPYNYFPHNDPQNTPRASWRSHGNLLFTNWLNYYVYQITPYDLRHMNPTLD	100%	–	7.6%
#37: feed-back resistant metA 37 gene product, amino acid sequence SEQ. ID. NO: 20 (protein, listed as Escherichia coli) MPIRVPDELPAVNFLREENVFVMTTSRAPGQEIRPLKVLILNLMPKKIETENQFLRLLSNSPLQVDIQLLRIDSRESRNTPAEHLNNFYCNFEDIQDQNFDGLIVTGAPLGLVGFNDVAYWPQIKQVLEWSKDHVTSTLSVCWAVQAALNILYGIPKQTRTEKLSGVYEHHILHPHALLTRGFDDSFLAPHSRYADFPAALIRDYTDLEILAETEEGDAYLFASKDKRIAFVTGHPEYDAQTLAQEFFRDVEAGLDPDVPYNYFPHNDPQNTPRASWRSHGNLLFTNWLNYYVYQITPYDLRHMNPTLD	227%	–	83%
#41: feed-back resistant metA 41 gene product, amino acid sequence SEQ. ID. NO: 22 (protein, listed as Escherichia coli) MPIRVPDELPAVNFLREENVFVMTTSRASGQEIRPLKVLILNLMPKKIETENQFLRLLSNSPLQVDIQLLRIDSRESRSTPAEHLNNFYCNFEDIQDQNFDGLIVTGAPLGLVEFNDVAYWPQIKQVLEWSKDHVTSTLIVCWAVQAALNILYGIPKQTRTEKLSGVYEHHILHPHALLTRGFDDSFLAPHSRYADFPAALIRDYTDLEILAETEEGDAYLFASKDKRIAFVTGHPEYDAQTLAQEFFRDVEAGLDPDVPYNYFPHNDPQNTPRASWRSHGNLLFTNWLNNYVYQITPYDLRHLNPTLD	389%	–	74%
